Data reported in paper PMC4917820, “Structural basis for autoinhibition and its relief of MOB1 in the Hippo pathway” (Scientific Reports, 2016).
Blank lines part the entries; values can stand above or below the molecule they belong to.

Key:
[1] = target: GST-N-terminal truncated MOB1B, N-terminal 10-residue truncated form (mouse) (UniProt Q8BPB0); test: pull-down; GST-MOB1B and LATS1 proteins (40 μM) mixed 1:1 in 20 mM Tris-HCl (pH 7.5), 0.3 M NaCl, 1 mM DTT, applied to Glutathione Sepharose 4B, washed at 4 °C, eluted with glutathione, SDS-PAGE with Coomassie blue, band intensities
[2] = target: T1, GST-MOB1B, N-terminal 32-residue truncated form (33-216) (mouse, UniProt Q8BPB0 33-216); test: as above; settings: both partners purified
T1 construct: MOB1B, mouse, residues 33-216; also called NΔ32; GST-N-truncated Δ32 MOB1B; source: E. coli; GST fusion, purification of this form not described; not shown: GST, N-terminal, kept
T1 sequence (looked up): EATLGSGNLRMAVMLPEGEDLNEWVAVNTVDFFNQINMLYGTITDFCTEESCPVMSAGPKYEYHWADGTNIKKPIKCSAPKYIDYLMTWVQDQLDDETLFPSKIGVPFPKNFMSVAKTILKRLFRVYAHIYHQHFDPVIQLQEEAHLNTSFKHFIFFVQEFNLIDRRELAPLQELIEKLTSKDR

[3] = target: T2, double-mutant T12D/T35D MOB1B (1-216) (mouse, UniProt Q8BPB0 1-216, T12D | T35D); test: crystal structure; 1:1 molar ratio mixture of MOB1B and LATS1 (621-703) crystallised by vapor diffusion, MES pH 6.5, PEG; settings: both partners purified
T2 construct: MOB1B, mouse, residues 1-216, with T12D and T35D; everywhere else it is T12D/T35D; also called phosphomimic (T12D/T35D) double-mutant; MOB1B(T12/35D); source: E. coli, purified by the same procedure as full-length MOB1B (GST removed); not shown: GST, N-terminal, cleaved
T2 sequence (looked up): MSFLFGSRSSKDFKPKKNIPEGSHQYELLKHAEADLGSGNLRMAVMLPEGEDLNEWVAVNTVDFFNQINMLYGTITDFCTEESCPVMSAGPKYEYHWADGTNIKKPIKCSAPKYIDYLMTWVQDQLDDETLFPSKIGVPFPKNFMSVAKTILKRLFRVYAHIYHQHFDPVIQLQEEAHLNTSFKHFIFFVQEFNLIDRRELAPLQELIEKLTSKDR

[4] = target: T3, N-terminal truncated MOB1B (33-216) (mouse, UniProt Q8BPB0 33-216); test: as above; settings: both partners purified
T3 construct: MOB1B, mouse, residues 33-216; also called N-terminal 32-residue truncated form; N-truncated MOB1B; source: E. coli, purified (Glutathione Sepharose 4B, HRV 3C digestion, HiTrap Q gradient, Superdex 75pg); not shown: GST, N-terminal, cleaved
T3 sequence (looked up): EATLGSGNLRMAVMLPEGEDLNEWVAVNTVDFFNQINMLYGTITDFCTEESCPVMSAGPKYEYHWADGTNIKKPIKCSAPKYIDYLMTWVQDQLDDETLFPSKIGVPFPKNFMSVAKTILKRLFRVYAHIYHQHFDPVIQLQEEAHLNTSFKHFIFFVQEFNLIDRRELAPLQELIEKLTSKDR

B1: NTR domain (residues 604-703) of LATS1 (domain or fragment, mouse, UniProt Q8BYR2 604-703, looked up)
chain: KEKKQITTSPITVRKNKKDEERRESRIQSYSPQAFKFFMEQHVENVLKSHQQRLHRKKQLENEMMRVGLSQDAQDQMRKMLCQKESNYIRLKRAKMDKSM
notes: also called wild-type; source: E. coli BL21 (DE3) Star, resolubilized from the insoluble fraction, purified (Ni-NTA, HiTrap SP, Superdex 75pg)
binding result [2]: binds

B3: NTR domain (604-703) of LATS1, R693A (domain or fragment, mouse, UniProt Q8BYR2 604-703, looked up)
chain: KEKKQITTSPITVRKNKKDEERRESRIQSYSPQAFKFFMEQHVENVLKSHQQRLHRKKQLENEMMRVGLSQDAQDQMRKMLCQKESNYIALKRAKMDKSM
notes: source: E. coli, resolubilized, purified (Ni-NTA, Superdex 75pg)
binding relative to the wild-type [2]: < 20%

B5: NTR domain (604-703) of LATS1, R656A (domain or fragment, mouse, UniProt Q8BYR2 604-703, looked up)
chain: KEKKQITTSPITVRKNKKDEERRESRIQSYSPQAFKFFMEQHVENVLKSHQQALHRKKQLENEMMRVGLSQDAQDQMRKMLCQKESNYIRLKRAKMDKSM
notes: as for B3
binding relative to the wild-type [2]: < 20%

Other lines, results leading:

relative autoinhibition of LATS1 binding (full length 100%, NΔ32 0%) [1]: 66%
Molecule: NTR domain of LATS1 (limits not told for this experiment) (domain or fragment)

binding relative to the wild-type [2]: < 20%
B2: NTR domain (604-703) of LATS1, R696A (domain or fragment, mouse, UniProt Q8BYR2 604-703, looked up)
chain: KEKKQITTSPITVRKNKKDEERRESRIQSYSPQAFKFFMEQHVENVLKSHQQRLHRKKQLENEMMRVGLSQDAQDQMRKMLCQKESNYIRLKAAKMDKSM
notes: as for B3

binding relative to the wild-type [2]: < 10%
B4: NTR domain (604-703) of LATS1, S689E (domain or fragment, mouse, UniProt Q8BYR2 604-703, looked up)
chain: KEKKQITTSPITVRKNKKDEERRESRIQSYSPQAFKFFMEQHVENVLKSHQQRLHRKKQLENEMMRVGLSQDAQDQMRKMLCQKEENYIRLKRAKMDKSM
notes: also called phosphomimetic substitution; source: E. coli, resolubilized, purified (Ni-NTA, Superdex 75pg)

binding result [3]: binds | binding result [4]: binds | binding result [2]: binds
B6: NTR domain (residues 621-703) of LATS1 (domain or fragment, mouse, UniProt Q8BYR2 621-703, looked up)
chain: KDEERRESRIQSYSPQAFKFFMEQHVENVLKSHQQRLHRKKQLENEMMRVGLSQDAQDQMRKMLCQKESNYIRLKRAKMDKSM
notes: also called N-terminal regulation (NTR) domain of LATS1; source: E. coli BL21 (DE3) Star, resolubilized from the insoluble fraction, purified (Ni-NTA, HiTrap SP, Superdex 75pg)
